Assay results: PMC2615687 (2008)

T1: myelin oligodendroglial glycoprotein (MOG) peptide on I-Ab (mouse)
T1 peptide: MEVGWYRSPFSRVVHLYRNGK

B1: 1MOG9 (TCR)
alpha TRAV12D-3*01 TRAJ17*01 CDR3: CALSAANSAGNKLTF
beta TRBV13-2*01 TRBJ2-4*01 CDR3: CASGDWGGEDTLYF
B2: 1MOG23 (TCR)
alpha TRAV12D-2*02 TRAJ18*01 CDR3: CALSDRGSALGRLHF
beta TRBV19*01 TRBJ2-3*01 CDR3: CASSIADSSAETLYF
B3: 2MOG10 (TCR)
alpha TRAV14-2*01 TRAJ21*01 CDR3: CAAASRIYNVLYF
beta TRBV5*01 TRBJ2-5*01 CDR3: CASNGLGEEDTQYF

Experiments:
[1] = biological target: T1, myelin oligodendroglial glycoprotein …; experiment: cytokine release
[2] = biological target: T1, myelin oligodendroglial glycoprotein …; experiment: in vivo

Row | Binder | binding result [1] | binding result [2]
1 | B1 | recognises | –
2 | B2 | – | recognises
3 | B3 | recognises | –
